We go through two molecules from patent US7176277 (BURNHAM INSTITUTE, dated 2007).

For one experiment, the target named is T1, GFP-TR3/ΔDBD (human, UniProt P22736 1-598).
T1 construct: also called GFP-ΔDBD
The experiment can be described thus: Co-IP. As to the method:
(§1) The cells were harvested and reporter gene activity was measured. […] Cells were suspended in lysis buffer (50 mM Tris-HCl, PH7.4; 150 mM NaCl; 20 mM EDTA; 1% NP-40; 1 mM PMSF; 50 μg/ml Leupeptin; 20 mg/ml Aprotinin; 0.1 mM Na_3VO_4; and 1 mM DTT). Cells extracts were cleared by incubation with the Protein A/G plus Agarose beads (Santa Cruz) and then incubated with appropriate antibody and 30 μl of Protein A or G plus Agarose beads overnight at 4° C. […] Immunoreactive products were detected by chemiluminescence with an enhanced chemiluminescence system (ECL) (Amersham).

The next experiment deals with T2, Bcl-2 (UniProt P10415 1-239).
T2 construct: The residue numbers used for the mutants (Tyr108, Leu137, Gly145, Arg146, TM 205-239) fit human Bcl-2 alpha; also called full-length Bcl-2; ^35S-labeled Bcl-2
The experiment can be described thus: Co-IP (result restated in Example 8). The method, then:
as §1
A Co-IP assay was performed, as described above.

B1: Bcl-2/ΔLoop (other, UniProt P10415 1-239, looked up)
chain: MAHAGRTGYDNREIVMKYIHYKLSQRGYEWDAAGPALSPVPPVVHLTLRQAGDDFSRRYRRDFAEMSSQLHLTPFTARGRFATVVEELFRDGVNWGRIVAFFEFGGVMCVESVNREMSPLVDNIALWMTEYLNRHLHTWIQDNGGWDAFVELYGPSMRPLFDFSWLSLKTLLSLALVGACITLGAYLGHK
notes: also called Bcl-2 lacking the loop region
As to B1, the binding result with GFP-TR3/ΔDBD is “no binding”.

B2: TR3/ΔDBD/ΔDC1 (other, not shown: large carriers; small tags and cut ends)
chain: MPCIQAQYGTPAPSPGPRDHLASDPLTPEFIKPTMDLASPEAAPAAPTALPSFSTFMDGYTGEFDTFLYQLPGTVQPCSSASSSASSTSSSSATSPASASFKFEDFQVYGCYPGPLSGPVDEALSSSGSDYYGSPCSAPSPSTPSFQPPQLSPWDGSFGHFSPSQTYEHVAAVAGEPQPASCLSRLLGKLPELRTLCTQGLQRIFYLKLEDLVPPPPIIDKIFMDTLPF
notes: also called TR3/ΔDBD/DC1; GFP fusion
Regarding B2, in the experiment with Bcl-2, the binding result was “no binding”.
